Data reported in paper PMC5291697.

Target: Ncore-MoRE (MeV N with MoRE relocated from Ntail to Ncore position 138) (measles virus (MeV-Edm strain))
Experiment: co-IP

B1: standard measles virus (MeV) phosphoprotein P, full length (natural protein)
chain: MATLLRSLALFKRNKDKPPITSGSGGAIRGIKHIIIVPIPGDSSITTRSRLLDRLVRLIGNPDVSGPKLTGALIGILSLFVESPGQLIQRITDDPDVSIRLLEVVQSDQSQSGLTFASRGTNMEDEADQYFSHDDPISSDQSRFGWFENKEISDIEVQDPEGFNMILGTILAQIWVLLAKAVTAPDTAADSELRRWIKYTQQRRVVGEFRLERKWLDVVRNRIAEDLSLRRFMVALILDIKRTPGNKPRIAEMICDIDTYIVEAGLASFILTIKFGIETMYPALGLHEFAGELSTLESLMNLYQQMGETAPYMVILENSIQNKFSAGSYPLLWSYAMGVGVELENSMGGLNFGRSYFDPAYFRLGQEMVRRSAGKVSSTLASELGITAEDARLVSEIAMHTTEDKISRAVGPRQAQVSFLHGDQSENELPRLGGKEDRRVKQSRGEARESYRETGPSRASDARAAHLPTGTPLDIDTASESSQDPQDSRRSADALLRLQAMAGISEEQGSDTDTPIVYNDRNLLD
- coprecipitation efficiency relative to standard N (% of standard N): 75
